The values below are quoted from earlier work in US11850285B2, “Insulin-responsive glucagon delivery patch” (North Carolina State University, priority 2017, dated 2023).

For this data set the following is noted: in vivo.

Take Insulin glargine: the duration entry was “up to 24 hour”.
